This is an account of results in paper PMC9541529 (The Febs Journal, 2022).

Sequences and labels used below:
B2: Hsp104 N‐terminal domain (NTD), wild type (domain or fragment)
chain: MNDQTQFTERALTILTLAQKLASDHQHPQLQPIHILAAFIETPEDGSVPYLQNLIEKGRYDYDLFKKVVNRNLVRIPQQQPAPAEITPSYALGKVLQDAAKIQKQQKDSFIAQDHILFALFNDSSIQQIFKEAQVDIEAIKQQALELRGNTR

The target of experiment [1] is B2. Put plainly: NMR titration.
Experiment [2] addresses tau 2N4R (human, UniProt P10636-8 1-441). Put plainly: co-sedimentation.
Experiment [3] concerns the target T1, Sup35 NM prion protein (NM domains) (S. cerevisiae, UniProt P05453 1-253).
T1 sequence: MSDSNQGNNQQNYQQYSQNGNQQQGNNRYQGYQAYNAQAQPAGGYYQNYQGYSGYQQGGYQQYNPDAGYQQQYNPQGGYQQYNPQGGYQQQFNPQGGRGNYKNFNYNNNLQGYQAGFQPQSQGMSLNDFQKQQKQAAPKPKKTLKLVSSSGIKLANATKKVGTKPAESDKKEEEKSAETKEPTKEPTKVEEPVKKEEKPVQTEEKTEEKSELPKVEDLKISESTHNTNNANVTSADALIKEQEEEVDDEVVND
Put plainly: NMR titration.

B1: α‐lactalbumin (natural protein)
chain: EQLTKCEVFRELKDLKGYGGVSLPEWVCTTFHTSGYDTQAIVQNNDSTEYGLFQINNKIWCKDDQNPHSSNICNISCDKFLDDDLTDDIMCVKKILDKVGINYWLAHKALCSEKLDQWLCEKL
B1: the binding result in experiment [1] was “binds”. As for B2, the binding result in experiment [2] and in experiment [3] was “binds” throughout.

B3: PhoA^349–471 (unfolded PhoA protein fragment, residues 349–471) (domain or fragment)
chain: DKQDHAANPCGQIGETVDLDEAVQRALEFAKKEGNTLVIVTADHAHASQIVAPDTKAPGLTQALNTKDGAVMVMSYGNSEEDSQEHTGSQLRIAAYGPHAANVVGLTDQTDLFYTMKAALGLK
Consider B3, for which the binding result in experiment [1] was “binds”.
